Patent US20200087408A1 (ANAPTYSBIO, published 2020)

T1: human IL-36R (on cells) (human, UniProt Q9HB29 20-575)
T1 sequence (looked up): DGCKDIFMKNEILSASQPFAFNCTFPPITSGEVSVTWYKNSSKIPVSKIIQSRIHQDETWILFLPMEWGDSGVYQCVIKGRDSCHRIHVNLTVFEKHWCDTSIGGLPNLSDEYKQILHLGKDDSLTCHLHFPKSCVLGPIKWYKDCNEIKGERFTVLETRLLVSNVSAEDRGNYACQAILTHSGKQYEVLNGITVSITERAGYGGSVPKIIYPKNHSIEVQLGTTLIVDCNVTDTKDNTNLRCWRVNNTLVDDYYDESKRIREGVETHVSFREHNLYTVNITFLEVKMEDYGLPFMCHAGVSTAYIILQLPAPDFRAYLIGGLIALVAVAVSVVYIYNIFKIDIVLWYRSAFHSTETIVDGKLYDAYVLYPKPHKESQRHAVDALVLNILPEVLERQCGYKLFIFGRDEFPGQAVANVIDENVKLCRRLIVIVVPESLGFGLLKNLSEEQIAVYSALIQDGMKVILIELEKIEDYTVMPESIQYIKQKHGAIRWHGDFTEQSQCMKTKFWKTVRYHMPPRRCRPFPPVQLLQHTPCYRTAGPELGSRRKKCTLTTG

T2: extracellular domain of human IL-36R (human, UniProt Q9HB29 20-335)
T2 construct: extracellular domain; Immobilised on the chip in the BIACORE assay; soluble and bead-coupled in the KINEXA assay; also called soluble human IL-36R extracellular domain
T2 sequence (looked up): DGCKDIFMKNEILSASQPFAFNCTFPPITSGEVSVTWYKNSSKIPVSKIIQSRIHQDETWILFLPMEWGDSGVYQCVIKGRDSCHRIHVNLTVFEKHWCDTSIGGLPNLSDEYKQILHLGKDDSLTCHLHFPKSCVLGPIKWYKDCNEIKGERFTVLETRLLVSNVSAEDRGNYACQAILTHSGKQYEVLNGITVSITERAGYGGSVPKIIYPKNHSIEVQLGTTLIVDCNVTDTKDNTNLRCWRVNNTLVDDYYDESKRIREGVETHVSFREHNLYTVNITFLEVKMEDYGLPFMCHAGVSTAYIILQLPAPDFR


Assays:
[1] = target: T1, human IL-36R (on cells); experiment: cell-based or functional assay
[2] = target: T1, human IL-36R (on cells); experiment: cell-based or functional assay; remark: listed apart in the source
[3] = target: T2, extracellular domain of human IL-36R; experiment: BIACORE T200 SPR, human IL-36R extracellular domain immobilised, antibody injected
Experimental: The binding affinities of various purified antibodies comprising immunoglobulin heavy chain (HC) and light chain (LC) polypeptides described herein were evaluated using BIACORE™ T200 […] assays. BIACORE™ T200 evaluation software (GE Healthcare, Buckinghamshire, United Kingdom) is used to determine antibody-antigen binding kinetics and affinity. The extracellular domain of human IL-36R was immobilized at approximately 100 RU onto a CMS sensor chip (GE Healthcare, Waukesha, Wis.) using amine coupling chemistry. HBS-EP+ buffer (0.01 M HEPES, 0.15 M NaCl, 3 mM EDTA, 0.05% Polysorbate, pH 7.6) (Teknova, Hollister, Calif.) was used to reconstitute each antibody at various concentrations Each antibody concentration was then injected for two to three minutes over immobilized antigen at a flow rate of 30 μL/min, and allowed to dissociate for 15 minutes. The surface was regenerated with 60 μL of 3 M MgCl₂ after each cycle. Association and dissociation kinetic constants (kon and koff) were fit globally using a 1:1 binding model with mass transport with the BIACORE™ T200 evaluation software in order to report on- and off-rates (ka and kd, respectively), as well as affinities (KD).

[4] = target: T2, extracellular domain of human IL-36R; experiment: KINEXA 3000 solution-phase equilibrium, soluble human IL-36R extracellular domain
Experimental: The binding affinities of various purified antibodies comprising immunoglobulin heavy chain (HC) and light chain (LC) polypeptides described herein also were evaluated using a KINEXA® 3000 assay (Sapidyne Instruments, Boise, Id.) assays. KINEXA® technology measures the amount of unbound/free antibody molecule in solution phase after incubation with varying concentrations of antigen. Measuring binding events in the solution phase with micro beads for maximized surface area avoids mass transport limitations and mobility effects inherent to methods that measure binding to a solid phase. For each experiment, 50 μg of soluble human or cyno IL-36R extracellular domain was amine-coupled to 50 mg of UltraLink Biosupport beads (Thermo Fisher Scientific, Waltham, Mass.). […] Antibody-antigen solution was then flowed over antigen-coupled beads at a rate of 0.25 mL/min. Free antibody captured by beads was detected using ALEXA FLUOR™ 647-conjugated AffiniPure Donkey Anti-Human IgG (H+L) (Jackson ImmunoResearch, West Grove, Pa.) (500 ng/ml). The KD and/or ABC (active binding concentration) of antibody was obtained from non-linear regression analysis using a one-site homogeneous binding model in the KINEXA™ Pro Software.

[5] = target: T1, human IL-36R (on cells); experiment: cell-based or functional assay; remark: listed apart in the source
[6] = target: cyno IL-36R (BIACORE antigen of Table 4) (cynomolgus monkey); experiment: BIACORE T200 SPR, cyno IL-36R
[7] = target: cynomolgus monkey IL-36R variant 3 (on cells) (cynomolgus monkey), A0A2K5; experiment: cell-based or functional assay
[8] = target: cynomolgus monkey IL-36R variant 2 (on cells) (cynomolgus monkey), A0A2K5; experiment: cell-based or functional assay
[9] = target: cynomolgus IL-36R (on cells, allelic variant not stated) (cynomolgus monkey), A0A2K5; experiment: cell-based or functional assay
cynomolgus IL-36R (on cells, allelic variant not stated) (cynomolgus monkey), A0A2K5, sequence (chain, as listed by the source mutant): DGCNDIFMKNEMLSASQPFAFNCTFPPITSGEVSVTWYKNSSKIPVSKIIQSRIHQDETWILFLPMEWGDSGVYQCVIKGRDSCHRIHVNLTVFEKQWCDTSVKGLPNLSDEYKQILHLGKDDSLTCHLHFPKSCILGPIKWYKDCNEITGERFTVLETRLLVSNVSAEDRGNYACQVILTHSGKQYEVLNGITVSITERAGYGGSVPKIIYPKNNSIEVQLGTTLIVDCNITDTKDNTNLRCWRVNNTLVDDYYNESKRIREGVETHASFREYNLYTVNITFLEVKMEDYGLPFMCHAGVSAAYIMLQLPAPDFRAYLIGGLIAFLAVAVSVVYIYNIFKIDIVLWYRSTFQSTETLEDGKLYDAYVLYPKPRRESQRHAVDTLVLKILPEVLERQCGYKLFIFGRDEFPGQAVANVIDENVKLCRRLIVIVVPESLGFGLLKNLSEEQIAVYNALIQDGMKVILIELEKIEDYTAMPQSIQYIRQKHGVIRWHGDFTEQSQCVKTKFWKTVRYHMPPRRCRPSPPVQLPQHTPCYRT

cynomolgus monkey IL-36R variant 3 (on cells) (cynomolgus monkey), A0A2K5, sequence (chain, as listed by the source mutant): as above
cynomolgus monkey IL-36R variant 2 (on cells) (cynomolgus monkey), A0A2K5, sequence (chain, as listed by the source mutant): as above

Binder | EC50 (nM), IL-8 secretion by primary human keratinocytes, 1 ng/ml human IL-36β [1] [nM] | EC50 (nM), IL-8 secretion by primary human keratinocytes, 10 ng/ml human IL-36α [1] [nM] | EC50 (nM), IL-8 secretion by primary human keratinocytes, 100 ng/ml human IL-36γ [1] [nM] | EC50 (nM), HEK human IL-36R IL-8 luciferase reporter assay, 50 ng/ml hIL-36α [2] [nM] | EC50 (nM), HEK human IL-36R IL-8 luciferase reporter assay, 200 ng/ml hIL-36γ [2] [nM] | Kd [3] [nM] | Kd [4] [nM] | EC50 (nM), IL-8 secretion by primary human monocytes, human IL-36α [5] [nM] | EC50 (nM), IL-8 secretion by primary human monocytes, human IL-36β [5] [nM] | EC50 (nM), IL-8 secretion by primary human monocytes, human IL-36γ [5] [nM] | EC50 (nM), HEK cyno IL-36R IL-8 luciferase reporter assay, 300 ng/ml cIL-36γ [9] [nM] | EC50 (nM), IL-8 secretion by primary cynomolgus keratinocytes, 10 ng/ml cyno IL-36β [9] [nM] | EC50 (nM), IL-8 secretion by primary cynomolgus keratinocytes, 50 ng/ml cyno IL-36α [9] [nM] | EC50 (nM), IL-8 secretion by primary cynomolgus keratinocytes, 250 ng/ml cyno IL-36γ [9] [nM] | EC50 (nM), HEK cyno IL-36R IL-8 luciferase reporter assay, 2 µg/ml cIL-36α [9] [nM] | EC50 (nM), HEK cyno IL-36R IL-8 luciferase reporter assay, 10 µg/ml cIL-36β [9] [nM] | EC50 (nM), IL-8 secretion by primary cynomolgus PBMCs, 10 ng/ml cyno IL-36β [9] [nM] | EC50 (nM), IL-8 secretion by primary cynomolgus PBMCs, 50 ng/ml cyno IL-36α [9] [nM] | EC50 (nM), IL-8 secretion by primary cynomolgus PBMCs, 250 ng/ml cyno IL-36γ [9] [nM] | EC50 (nM), HEK human IL-36R IL-8 luciferase reporter assay, 20 ng/ml hIL-36β [2] [nM] | also measured
Humanized (HzD) 1D9 (APE5281) (antibody, V domains shown, also called 1D9 Humanized) VH: QVQLMQSGAEVKKPGASVKVSCKASGFTFTSYDINWVRQAPGQRLEWMGWIYPGDSSTKYNEKFKGRVTITADKSANTAYMELASLRSEDTAVYFCTRSFYTMDYWGQGTTVTVSS VL: DIVMTQSPLSLPVTPGEPASISCRSSKSLLHSNANTYLYWFLQKPGQSPQLLISRMSNLASGVPDRFSGSGSGTDFTLKISRVEAEDVGVYYCMQHLEYPFTFGQGTKLEIK | 0.053 | 0.047 | 0.04 | 0.17 | 0.12 | 0.077 | 0.008 | 0.035 | 0.033 | 0.027 |  |  |  |  |  |  |  |  |  |  | Kd [6]: 0.126 nM
APE6904 (antibody, V domains shown, also called 18D4 Humanized) VH: DLQFQESGPGLVKPSQTLSLTCTVTGYSITADFAWNWIRQPPGKGLEWIGYISYSGDTNYNPSLKSRVTITRDTSKNQFSLKLSSVTAADTAVYFCAIRGPYSFTYWGQGTLVTVSS VL: DIQMTQSPSSLSASVGDRVTITCRASQWINNYLNWYQQKPGKAPKLLIYYTSMLHSGVPSRFSPSGSGNDYTFTISSLQPEDIATYYCQQGHTLPWTFGGGTKVEIKR |  |  |  |  |  |  | 0.027 |  |  |  |  |  |  |  |  |  |  |  |  |  | 
Hzd 18D4 (APE7247) (antibody, V domains shown) VH: DVQFQESGPGLVKPSQTLSLTCTVTGYSITADFAWNWIRQPPGKGLEWIGYISYSGDTNYNPSLKSRVTITRDTSKNQFSLKLSSVTAADTAVYFCAIRGPYSFTYWGQGTLVTVSSA VL: DIQMTQSPSSLSASVGDRVTITCRASQWINNYLNWYQQKPGKAPKLLIYYTSMLHSGVPSRFSPSGSGNDYTFTISSLQPEDIATYYCQQGHTLPWTFGGGTKVEIKRT |  |  |  |  |  |  |  |  |  |  | 0.24 | 1.8 | 2.3 | 5.6 |  |  |  |  |  |  | EC50 (nM), IL-8 luciferase reporter assay, 300 ng/ml IL-36γ (Cyno IL-36R variant 3) [7]: 0.42 nM; EC50 (nM), IL-8 luciferase reporter assay, 300 ng/ml IL-36γ (Cyno IL-36R variant 2) [8]: 0.065 nM
Hzd 5D3 (APE6060) (antibody, V domains shown, also called 5D3 Humanized) VH: QVQLVQSGAEVKKPGASVKVSCKASGYTFTNYWMNWVRQAPRQGLEWMGMFHPTGDVTRLNQKFKDRVTMTRDTSTSTVYMELSSLRSEDTAVYYCARTTSMIIGGFAYWGQGTLVTVSS VL: DIVMTQTPLSLSVTPGQPASISCRSSKSLLHRNAITYFYWYLQKPGQPPQLLIYQMSNLASGVPDRFSGSGSGTDFTLKISRVEAEDVGVYYCAQNLELPLTFGGGTKVEIK | 0.217 | 0.08 | 0.08 | 0.23 | 0.35 | 0.05 |  | 0.081 | 0.9 | 0.79 | 0.29 | 1.4 | 1.4 | 1 | 0.067 | 0.17 | 1.7 | 0.98 | 1.4 | 0.24 | 
Hzd 5D3 (APE6194) (antibody, V domains shown, also called 5D3 Humanized) VH: QVQLVQSGAEVKKPGASVKVSCKASGYTFTNYWMNWVRQAPRQGLEWMGMFHPYGDVTRLNQKFKDRVTMTRDTSTSTVYMELSSLRSEDTAVYYCARTTSMIIGGFAYWGQGTLVTVSS VL: DIVMTQTPLSLSVTPGQPASISCRSSKSLLHRNAITYFYWYLHKPGQPPQLLIYQMSNLASGVPDRFSGSGSGTDFTLKISRVEAEDVGVYYCAQNLELPLTFGGGTKVEIK | 0.164 | 0.105 | 0.083 | 0.17 | 0.45 | 0.022 |  | 0.09 | 0.105 | 0.084 | 0.31 | 2 | 1.2 | 1.2 | 0.073 | 0.19 | 1.6 | 1.5 | 1.6 | 0.3 | 
